# Assay results published in article PMC7584632.
# Key:
# [1] = biological target: SpyCas9 (Streptococcus pyogenes)
# [2] = biological target: SpyCas9 (Streptococcus pyogenes); remark: listed apart in the source
Substance,mutagenesis rate by NHEJ (T7E1 assay) with the AcrIIA4-2A-Cas9 vector; SpyCas9 vector alone 8.0% [1] [%],mutagenesis rate by NHEJ (T7E1 assay) with the AcrIIA4-Cdt1-2A-Cas9 vector; SpyCas9 vector alone 8.0% [1] [%],"repression of the target mutation at AAVS1 (T7E1 assay, ssODN template) against SpyCas9 alone [2] [%]"
AcrIIA4 (natural protein),0.9,–,–
AcrIIA4-hCdt1(30–120) (from UniProt Q9H211 30-120),–,3.7,79.1
